In article PMC12406685, “Thiazole substitution of a labile amide bond—a new option toward antiplasmodial pantothenamide-mimics” (Antimicrobial Agents and Chemotherapy, 2025):

Columns and labels:
Conditions in all cases: other: compound as substrate of HsPanK3; mean ± SEM; 2c and 2e fitted with substrate inhibition equation 1
[1] = substrate: CC(C)(CO)[C@@H](O)C(=O)NCCC(=O)O; assay: purified protein, by the assay type
[2] = substrate: CC(C)(CO)[C@@H](O)C(=O)NCc1csc(Cc2ccccc2)n1; assay: HsPanK kinetic assay (pyruvate kinase/lactic dehydrogenase coupled, NADH at 340 nm); type: biochemical, human
Procedure: (§1) The gene encoding the catalytic core domain of human PanK3 (amino acid residues 12–368) was synthesized and cloned into the pET28a(+) expression vector using the NdeI and BamHI restriction sites to produce an N-terminal His6-tagged protein (Bio Basic Inc.). The plasmid was transformed into E. coli BL21(DE3) cells, which were cultured in Terrific Broth (TB) medium containing 50 µg/mL kanamycin at 37°C. When the culture reached an optical density at 600 nm (OD600) of 0.6, protein expression was induced by adding 1.0 mM isopropyl β-D-thiogalactoside (IPTG), followed by incubation at 18°C for 17–18 h. The cells were then harvested and resuspended in lysis buffer (20 mM Tris-HCl, pH 7.5, 500 mM NaCl, 5 mM imidazole, 5% [vol/vol] glycerol) supplemented with 1 mM PMSF (phenylmethylsulfonyl fluoride) and lysozyme (5 mg/g of the cell pellet). The suspension was then sonicated on ice, and the resulting lysate was centrifuged twice at 54,000 × g for 30 min at 4°C.
(§2) The clarified supernatant was incubated with Ni-NTA resin (Cytiva) pre-equilibrated with lysis buffer containing 5 mM imidazole at 4°C. After binding, the resin was washed with lysis buffer containing 30 mM imidazole, then eluted with lysis buffer containing 250 mM imidazole. The eluted HsPanK3 protein was dialyzed against storage buffer (20 mM Tris-HCl, pH 7.5, 200 mM NaCl, 5% [vol/vol] glycerol) and concentrated. The purified protein was stored at −80°C. Protein purity was assessed using SDS-PAGE and deemed >50% (Fig. S4).
(§3) The enzyme assay was adapted from a previously described method ([103]), which links the production of ADP to the consumption of NADH through the enzymatic activities of pyruvate kinase and lactic dehydrogenase. Reactions were conducted in 96-well microtiter plates, and the decrease in NADH concentration was measured at 340 nm at 30 s intervals after incubation at 30°C. Each reaction mixture (200 µL) contained the desired compound (substrate) at variable concentrations (0–2,000 µM), ATP (1.5 mM), NADH (0.3 mM), phospho(enol)pyruvate (2.0 mM), MgCl2 (10 mM), KCl (20 mM), a commercial pyruvate kinase/lactic dehydrogenase mixture (12 units, Sigma-Aldrich), and pantothenate kinase (0.48 µM) in 50 mM Tris–HCl buffer (pH 7.6). The reaction was initiated with the addition of ATP. The kinetic parameters were determined by fitting the rate data into the Michaelis–Menten equation using GraphPad Prism 8.0 with nonlinear regressions. Data were collected from three independent experiments, each performed in triplicate to verify the trends and optimize the selected concentrations. The kinetic parameters were calculated from the most complete triplicate set of data, and errors represent SEM.

[3] = substrate: CCCCCc1csc(CNC(=O)[C@H](O)C(C)(C)CO)n1; assay: as above; type: biochemical, human
Procedure: as §1, §2, §3

[4] = substrate: CCCCc1csc(CNC(=O)[C@H](O)C(C)(C)CO)n1; assay: as above; type: biochemical, human
Procedure: as §1, §2, §3

[5] = substrate: CC(C)(CO)[C@@H](O)C(=O)NCc1nc(CCc2ccccc2)cs1; assay: as above; type: biochemical, human
Procedure: as §1, §2, §3

[6] = substrate: CC(C)(CO)[C@@H](O)C(=O)NCc1csc(-c2ccccc2)n1; assay: as above; type: biochemical, human
Procedure: as §1, §2, §3

[7] = substrate: CC(C)(CO)[C@@H](O)C(=O)NCc1cnc(-c2ccccc2)s1; assay: as above; type: biochemical, human
Procedure: as §1, §2, §3

B1: HsPanK3 (Homo sapiens) (protein)
chain: PWFGMDIGGTLVKLSYFEPIDITAEEEQEEVESLKSIRKYLTSNVAYGSTGIRDVHLELKDLTLFGRRGNLHFIRFPTQDLPTFIQMGRDKNFSTLQTVLCATGGGAYKFEKDFRTIGNLHLHKLDELDCLVKGLLYIDSVSFNGQAECYYFANASEPERCQKMPFNLDDPYPLLVVNIGSGVSILAVHSKDNYKRVTGTSLGGGTFLGLCSLLTGCESFEEALEMASKGDSTQADKLVRDIYGGDYERFGLPGWAVASSFGNMIYKEKRESVSKEDLARATLVTITNNIGSVARMCAVNEKINRVVFVGNFLRVNTLSMKLLAYALDYWSKGQLKALFLEHEGYFGAVGALLGLPN
notes: catalytic core domain of human PanK3 (amino acid residues 12–368); made in house; host or cells: E. coli BL21(DE3)
Km [1]: 24 ± 4 µM
kcat [1]: 0.64 s⁻¹
kcat/Km [1]: 30000 M⁻¹ s⁻¹
Km [2]: 69 ± 6 µM
kcat [2]: 0.63 ± 0.02 s⁻¹
kcat/Km [2]: 9300 ± 500 M⁻¹ s⁻¹
Km [3]: 65 ± 7 µM
kcat [3]: 0.61 ± 0.02 s⁻¹
kcat/Km [3]: 10200 ± 900 M⁻¹ s⁻¹
Km [4]: 100 ± 7 µM
kcat [4]: 0.64 ± 0.01 s⁻¹
kcat/Km [4]: 6600 ± 400 M⁻¹ s⁻¹
Km [5]: 42 ± 4 µM
kcat [5]: 0.399 ± 0.005 s⁻¹
kcat/Km [5]: 10000 ± 1000 M⁻¹ s⁻¹
Km [6]: 67 ± 10 µM
kcat [6]: 0.73 ± 0.05 s⁻¹
kcat/Km [6]: 12000 ± 1000 M⁻¹ s⁻¹
Km [7]: 75 ± 11 µM
kcat [7]: 0.73 ± 0.02 s⁻¹
kcat/Km [7]: 10700 ± 800 M⁻¹ s⁻¹
